In patent US20130129763A1 (ARNE FORSGREN, published 2013):

Tests used:
[1] = molecular target: T1, methylamine-treated C3 (C3met) (human, UniProt P01024 23-667; P01024 672-1663); assay: SPR (Biacore 2000), UspA protein amine-coupled on CM5 chip, C3met injected, steady state affinity model; UspA1^50-770 on the chip
T1 construct: mature; also called C3b-like molecule; [125I]-C3met

[2] = molecular target: T2, Engelbreth-Holm-Swarm mouse sarcoma laminin (Sigma) (mouse, UniProt P19137 25-3083; P02469 22-1786; P02468 34-1607); assay: ELISA: 40 nM UspA1 50-770 coated, soluble laminin titrated in three-fold steps 0.03-60 µg/ml, rabbit anti-laminin pAb + HRP anti-rabbit pAb
T2 construct: also called soluble laminin

T1 sequence (P01024 23-667 limits assumed, chain 1 of 2): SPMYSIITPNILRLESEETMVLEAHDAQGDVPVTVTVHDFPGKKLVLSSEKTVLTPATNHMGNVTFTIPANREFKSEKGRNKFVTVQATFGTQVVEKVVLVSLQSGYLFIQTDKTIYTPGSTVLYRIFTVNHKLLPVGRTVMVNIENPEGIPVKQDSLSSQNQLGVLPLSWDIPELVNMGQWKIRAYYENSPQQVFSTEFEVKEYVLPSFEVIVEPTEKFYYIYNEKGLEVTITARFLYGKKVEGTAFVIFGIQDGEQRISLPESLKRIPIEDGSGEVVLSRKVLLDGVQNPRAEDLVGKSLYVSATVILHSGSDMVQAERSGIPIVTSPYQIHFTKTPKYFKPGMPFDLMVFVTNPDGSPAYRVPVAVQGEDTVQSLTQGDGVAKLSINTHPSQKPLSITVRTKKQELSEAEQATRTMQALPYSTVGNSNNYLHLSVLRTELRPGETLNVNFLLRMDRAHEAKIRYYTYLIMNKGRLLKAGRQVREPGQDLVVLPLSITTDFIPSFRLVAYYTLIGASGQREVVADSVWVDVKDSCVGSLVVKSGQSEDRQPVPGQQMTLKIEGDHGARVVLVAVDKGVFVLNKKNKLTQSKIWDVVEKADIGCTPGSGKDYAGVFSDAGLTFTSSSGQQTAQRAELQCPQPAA
T1 sequence (P01024 672-1663 limits assumed, chain 2 of 2): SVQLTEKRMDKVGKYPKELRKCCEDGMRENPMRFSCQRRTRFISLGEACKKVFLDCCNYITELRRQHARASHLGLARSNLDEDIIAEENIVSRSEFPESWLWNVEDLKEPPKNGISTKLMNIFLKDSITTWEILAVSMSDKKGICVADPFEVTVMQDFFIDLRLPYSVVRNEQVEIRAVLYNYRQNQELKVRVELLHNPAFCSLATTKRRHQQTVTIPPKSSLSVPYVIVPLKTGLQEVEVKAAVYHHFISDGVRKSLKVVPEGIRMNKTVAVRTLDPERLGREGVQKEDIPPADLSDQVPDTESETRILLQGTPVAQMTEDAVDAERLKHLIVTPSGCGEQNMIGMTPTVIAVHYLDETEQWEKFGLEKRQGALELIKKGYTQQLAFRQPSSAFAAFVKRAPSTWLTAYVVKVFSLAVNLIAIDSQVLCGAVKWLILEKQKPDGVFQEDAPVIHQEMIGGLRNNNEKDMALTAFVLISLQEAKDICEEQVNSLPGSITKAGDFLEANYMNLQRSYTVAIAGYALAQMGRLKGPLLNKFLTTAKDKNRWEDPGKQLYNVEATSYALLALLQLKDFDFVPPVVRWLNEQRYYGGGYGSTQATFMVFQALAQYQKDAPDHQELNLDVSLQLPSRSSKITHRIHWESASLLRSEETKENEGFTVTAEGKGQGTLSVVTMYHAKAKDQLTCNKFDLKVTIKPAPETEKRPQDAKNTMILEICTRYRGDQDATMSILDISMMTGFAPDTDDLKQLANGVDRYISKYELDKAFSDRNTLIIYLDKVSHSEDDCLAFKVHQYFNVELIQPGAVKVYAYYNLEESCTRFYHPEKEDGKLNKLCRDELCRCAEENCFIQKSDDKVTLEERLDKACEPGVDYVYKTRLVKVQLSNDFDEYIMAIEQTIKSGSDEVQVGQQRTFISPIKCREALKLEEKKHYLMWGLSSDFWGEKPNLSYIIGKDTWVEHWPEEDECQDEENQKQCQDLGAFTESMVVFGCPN

B1: recombinant UspA1^50-770 (M. catarrhalis Bc5) (other)
chain: KVGKATNKISGGDNNTANGTYLTIGGGDYNKTKGRYSTIGGGLFNEATNEYSTIGSGGYNKAKGRYSTIGGGGYNEATNQYSTIGGGDNNTAKGRYSTIGGGGYNEATIENSTVGGGGYNQAKGRNSTVAGGYNNEATGTDSTIAGGRKNQATGKGSFAAGIDNKANADNAVALGNKNTIEGENSVAIGSNNTVKKGQQNVFILGSNTDTTNAQNGSVLLGHNTAGKAATIVNSAEVGGLSLTGFAGASKTGNGTVSVGKKGKERQIVHVGAGEISDTSTDAVNGSQLHVLATVVAQNKADIKDLDDEVGLLGEEINSLEGEIFNNQDAIAKNQADIKTLESNVEEGLLDLSGRLLDQKADIDNNINNIYELAQQQDQHSSDIKTLKNNVEEGLLDLSGRLIDQKADLTKDIKALESNVEEGLLDLSGRLIDQKADIAKNQADIAQNQTDIQDLAAYNELQDAYAKQQTEAIDALNKASSANTDRIATAELGIAENKKDAQIAKAQANENKDGIAKNQADIQLHDKKITNLGILHSMVARAVGNNTQGVATNKADIAKNQADIANNIKNIYELAQQQDQHSSDIKTLAKVSAANTDRIAKNKAEADASFETLTKNQNTLIEQGEALVEQNKAINQELEGFAAHADVQDKQILQNQADITTNKTAIEQNINRTVANGFEIEKNKAGIATNKQELILQNDRLNRINETNNHQDQKIDQLGYAL
notes: also called UspA1^56-770 [sic]; UspA1^50-7"
- Kd [1]: 14 µM
- binding result [2]: binds
